Assay results reported in PMC11436793.

Biological target: T1, SBP-UNK ZnF1-6 (30-357) (human, UniProt Q9C0B0 30-357)
T1 sequence: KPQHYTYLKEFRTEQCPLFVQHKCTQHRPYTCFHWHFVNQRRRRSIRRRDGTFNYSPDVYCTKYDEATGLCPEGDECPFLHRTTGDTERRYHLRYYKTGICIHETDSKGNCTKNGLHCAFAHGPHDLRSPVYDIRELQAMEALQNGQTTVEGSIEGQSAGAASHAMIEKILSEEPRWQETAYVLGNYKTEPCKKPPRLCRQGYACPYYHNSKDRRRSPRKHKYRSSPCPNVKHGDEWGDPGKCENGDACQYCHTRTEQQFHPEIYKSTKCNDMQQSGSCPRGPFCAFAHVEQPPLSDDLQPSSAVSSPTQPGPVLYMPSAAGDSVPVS
Assay: fluorescence polarization

Binder: UUCAUCGCAUUAGACAUUUU (ssRNA) [Chi58-67 gtpb4 FP RNA]
- Kd: 305 nM

Binder: UACAUCGCAUUAGACAUUUU (ssRNA) [Human GTPB4 FP RNA]
- Kd: 263 nM
